Experimental findings from patent US20230063420A1 are described below.

Experiment [1] concerns the target GLP-1 receptor (Example 19, species not stated). As to the kind of experiment: cell-based or functional assay.
For experiment [2], the target named is cyno glucagon receptor (cyno). The experiment in a line: cell-based or functional assay.

semaglutide (peptide): in experiment [1], the pEC50, cAMP accumulation, 0% HSA was 11.6 -log M; the pEC50, cAMP accumulation, 0.1% HSA is 10.3 -log M; the pEC50, cAMP accumulation, 4% HSA was 9.24 -log M. Also, the cGCGR pEC50, cAMP accumulation in experiment [2] is < 9 -log M.
